Biological target: Pertuzumab Cλ variants
Test: BLI; antibody light chain variants pre-loaded on Anti-hIgG-Fc Capture (AHC) biosensors, Her2 at 100 nM to 6.25 nM, Octet QKe, 1x kinetic buffer

## HIS-tagged Her2 (recombinant extracellular portion) (from UniProt P04626 23-652) (domain or fragment)
  Kd: 0.77 to 1.42 nM

— PMC5768722
